The values that follow come from a protein production outcome set (Wang et al. 2014).

The series is described as follows: label from the status in PepcDB records.

Take “RHDFSDQTAMLELFSQLFGPYPFDQYSVVVTEDDLEIPLEAQGLSIFGANHAGGTKQWERLIAHELAHQWFGNSLGLAQWDDIWLNEGFACYAE”: the protein production entry was “failed”.

As for “RHQVESSPLFRALALRCNQTMVTLRSANMFHAYGFLAKVFEILAKHKISVDLITTSEISVSLTLDQTDTSGGAPQLPQAAREELEELCKVEVEHDLCLVALIGNKMSERKGYAKQVFGTLEDLNLRMICYGASPHNLCFLVNESVAKQAIQKLHTELFEQ”, the protein production result was “not failed”.

On to “RIGIVVAAHGNSTASSMVQVVSQLLNVDNLKAVDMPLDMPPKEALRKIVEAVGEVNEENGVLLLVDMGSLSTFSEEIVRQTGIDVRTVDMVTTPIVLEAARKTALIDTQLETLHESLKNFHGYADIRQSETKQ”, for which the protein production result is “not failed”.

As for “RPFMQKRAQKALPHVSTGADALVGRKVLVTETIDPTTDKGRVAVDGDVWTARSLTGEVIEKGMRVEIVSYESIVLNVVVLGNDKQ”, the protein production entry is “not failed”.

For “RRLNDELLGKVVSVVSATERTEWYPALVISPSCNDDITVKKDQCLVRSFIDSKFYSIARKDIKEVDILNLPESELSTKPGLQKASIFLKTRVVPDNWKM”, the protein production entry is on record as “failed”.

As to “RSRTKLLLLTVIPLIVITALVMAVNYQSGLSTLQKELENYRTDLIDAKKKELQAYLMMGVTAVKPLYESDKAGENQAQAKQILKAMRFDSDGYFFAYDSQGVNTLHAIKPELEGKNLYGMKD”, the protein production result is “failed”.

As to “RSSYVLPDKFVLSVPIQGNLDEVHSLSSSLPLLSSAEPLSFQDLLFLFDHAAGDKRIGSILLEIGGVHANPAKLTELRYSIEKMKASGKKVVAFLRSAEDSDYLLATACDSIVVEEGGFLMLDGLKAETLFYTKSLNKIGITFQASQWKTYKSGIEPFVRTGASSEYLEQIGELLDDVYDDYLGYASKRRGISRDSLQAVIDNMALLSAKKAVQLGLADGIASSWA”, the protein production result is recorded as “failed”.

In the case of “RTEVVAVALDTSLEELKGRFVESGISKIIVYDGNIDNVVGYIHSSEMFRSPKDWRNHVKEVPIVPETMAAHKLMKLFMQQKKTIAVVVDEFGGTSGIVSLEDLVEEIFGDIEDEHDNTSYICKQIGE”, the protein production entry was “not failed”.

As to “RTRHLFEMTRELSRALTLEEVVRTSYHFLSSAFDAKVCLLMPNHHGELTPYNAEGMGQLPIDSGIARWCWDKDQIAGAGTDTLPSVPYQLHPISASQQVLAILAIEPNNLRQVLIPEQQQLLQTFNGLIANALERLQQAEMAEQSRINIEREQ”, the protein production entry is recorded as “not failed”.

On to “SAAKALKDLKNLPVSERNIDYKTKLLVGKMNGTAEDKPPQNSVPFDHNHPKGDEIEKPEAERVIVEIEYIESKDLNNVTQVDAVLKSLVTELDSKDWVLVCDALNTIRRLSIFHKEEMLHMLEKVILFIVKSLKNPRSAVSKTACMTSADIFSSYNDHTIDQLDLLLTQLLLKSSQDKRFVCEAAEKALVAMTAHVSPALLLPKLQPFLKNRNPRIRAKASTCFSRCVPRLGIEGIREYGIEKLVQAASSQLSDQLPESREAARAVLLELQTVYKKTTNVEPKEEHPEPVTWQIFCQSNLSPLSAQAVIRVTNVAGVAREGLVAGS”, for which the protein production result is “failed”.

“SAALAGVFVWDEERIQEEELQRSINEMKRLEEMSNMFQSSGVQHHPPEPKAQTEGNEDSEGKEQRWEMVMDKKHFKLWRRPITGTHLYQYRVFGTYTDVTPRQFFNVQLDTEYRKKWDALVIKLEVIERDVVSGSEVLHWVTHFPYPMYSRDYVYVRRYSVDQENNMMVLVSRAVEHPSVPESPEFVRVRSYESQMVIRPHKSFDENGFDYLLTYSDNPQTVFPRYCVSWMVSSGMPDFLEKLHMATLKAKNMEIKVKDYISAKPLEMSSEAKATSQSSERKNEGSCGPARIEYA”: the protein production result is on record as “not failed”.

In the case of “SAESWLRLSGAGPAEEAGPEGGLEEPDALDDSLTSLQWLQEFSILNAKAPALPPGGTDPHGYHQVPGSAAPGSPLAADPACLGQPHTPGKPTSSCTSRSAPPGLQAPPPDDVDYATNPHVKPPYSYATLICMAMQASKATKITLSAIYKWITDNFCYFRHADPTWQNSIRHNLSLNKCFIKVPREKDEPGKGGFWRIDPQYAERLLSGAFKKRRLPPVHIHPAFARQAAQEPSAVPRAGPLTVNTEAQQLLREFEEATGEAGWGAGEGRLGHKRKQPLPKRVAKVPRPPSTLLPTPEEQGELEPLKGNFDWEAIFDAGTLGGELGALEALELSPPLSPASHVDVDLTIHGRHIDCPATWGPSVEQAADSLDFDETFLATSFLQHPWDESGSGCLPPEPLFEAGDATLASDLQDWASVGAFL”, the protein production entry is listed as “failed”.

For “SAKTDKLAQFLDSGIYESDEFNWFFLDTVRITNRSYTRFKVSPSAYYSRFFNSKQLNQHSSESNPKKRKRKQKNSSFHLPSVGEQASNLRHQEARLFLSKAHESFLKEIELLSLTKGLSDDNDDDDSSLLNKCCDDEVSFIELGGVWQAPFYEITLSFNLHCDNEGESCNEQRVFQVFNNLVVNEIGEEVEAEFSNRRYIMPRNSCFYMSDLHHIRNLVPEKISHYHIGRRCNSLIDVIYAAKSEEGYNLIVIDPPWENASAHQKSKYPTLPNQYFLSLPIKQLAHAEGALVALWVTNREKLLSFVEKELFPAWGIKYVATMYWLKVKPDGTLICDLDLVHHKPYEYLLLGYHFTELAGSEKRSDFKLLDKNQIIMSIPGDFSRKPPIGDILLKHTPGSQPARCLELFAREMAAGWTSWGNEPLHFQDSRYFLKV”, the protein production entry was “failed”.

For the sequence “SALIAALSVSGLPSNRFTFEGFLPAKPTARRDRLTHLAHEPRTLIFYEASHRIAECLTDLATIFGSMRIAVVARELTKIFETVLDGTLATLQTQVANDENQRKGEFVIIVQGAADQ”, the protein production entry is reported as “failed”.

Take “SALTAALSVCPLPSSSFFFAGFLPHKKGRKSRLEFLASIDSTIVLYESPHRIGRLMEEVKEHFPDAQVFAAREITKMHEEYVTGTPDELANHFTGQKQRGEFVVVVHPPDKH”: the protein production entry is reported as “failed”.

With “SALTLLEDWCKGMDMDPRKALLIVGIPMECSEVEIQDTVKAGLQPLCAYRVLGRMFRREDNAKAVFIELADTVNYTTLPSHIPGKGGSWEVVVKPRNPDDEFLSRLNYFLKDEGRSMTDVARALGCCSLPAESLDAEVMPQVRSPPLEPPKESMWYRKLKVFSGTASPSPGEETFEDWLEQVTEIMPIWQVSEVEKRRRLLESLRGPALSIMRVLQANNDSITVEQCLDALKQIFGDKEDFGASQFRFLQTSPKIGEKVSTFLLRLEPLLQKAVHKSPLSVRSTDMIRLKHLLARVAMTPALRGKLELLDQRGCPPNFLELMKLIRDEEEWENTEAVMKNKEKPSGRGRGASGRQARAEASVSAPQATVQARSFSDSSPQTIQGGLPPLVKRRRLLGSESTRGEDHGQATYPKAENQTPGREGPQAAGEELGNEAGAGAMSHPKPWET”, the protein production result is recorded as “not failed”.

Turning to “SANSGCKDVTGPDEESFLYFAYGSNLLTERIHLRNPSAAFFCVARLQDFKLDFGNSQGKTSQTWHGGIATIFQSPGDEVWGVVWKMNKSNLNSLDEQEGVKSGMYVVIEVKVATQEGKEITCRSYLMTNYESAPPSPQYKKIICMGAKENGLPLEYQEKLKAIEPNDYTGKVSEEIEDIIKKGETQTL”, the protein production entry was “not failed”.

“SAQEKMELDLELPPGTGGSPAEGGGSGGGGGLRRSNSAPLIHGLSDTSPVFQAEAPSARRNSTTFPSRHGLLLPASPVRMHSSRLHQIKQEEGMDLINRETVHEREVQTAMQISHSWEESFSLSDNDVEKSASPKRIDFIPVSPAPSPTRGIGKQCFSPSLQSFVSSNGLPPSPIPSPTTRFTTRRSQSPINCIRPSVLGPLKRKCEMETEYQPKRFFQGITNMLSSDVAQLSDPGVCVSSDTLDGNSSSAGSSCNSPAKVSTTTDSPVSPAQAASPFIPLDELSSK”: the protein production result is given as “not failed”.

“SASLPIRHLTPRDLTACADLSEDRGWPREEHKWGLLLAAGKGYGIDDPEGGLVSACVVTEYGPQDRPDLGAIGMVLVAERHARQGIGRRLMRHVMAEMATTPLTLCATPFGRPLYEELGFKVVGHSEMVRGYFAP”: the protein production entry is “failed”.

Consider “SASYLILRNYRNSIEGLIEKGIRDEEFIPYYQPIVDSRTQEVVGYEVLLRWQKGHQLVPPSLFISAAEDSGLVVKITNQLIQQVHRDLAQIPAPRWVSINVVADHLEQHHLTHLLEELHWPYSERLKFELTERVPIKAMTQAQEEVFYLLKKGYQFKIDDFGTGYGGFAYLQNLQISSIKIDKMFVDTINTHDVKISVLDSIIASAQGGNIEVIAEGVEHQYQVDYLAERNVFWIQGYFYAKP”, for which the protein production result is “failed”.

With “SCNETGMLERLPLCGKAFADMMGKVDVWKWCNLSEFIVYYESFTNCTEMEANVVGCYWPNPLAQGFITGIHRQFFSNCTVDRVHLEDPPDEVLIPLIVIPVVLTVAMAGLVVWRSKRTDTLL”, the protein production result was “not failed”.

Consider “SDDREMDDGRWKASALRVPLQVSSAVIKQEVVTRLAPDPVPLTEGAIGIFLSGTEPESGQEDSGYKVIDNRKYVYSEGHWGPPTANDTIYLVGNDADVCAYYPYKDSYTDKTVIPLQSQDYVETEDIYYALNTMINGFTPAITFDMVHAYSLVELKISRENYFMPCEISKITLKNSNLIKKGTINIAVDGSIHSSETGNYDLTTVTDASPHTLSVGESYVCRVLMIPVPLKIERTDAEGGEFGLSVSLVIDGQQMLVEIPYSELGEFRQGEKYVIGLKIKGTEIVPTVKALEWEDEEVNGGNKYPVE”, for which the protein production result was “not failed”.

For the sequence “SDESDLPSAMPAVPAFGVEERNMVSGVLTLAERSIRSIMTPRTDVSWVNIDDDAATIRQQLTAAPHSFFPVCRGSLDEVVGIGRAKDLVADLITEGRVRRNRLRDPIIVHESIGILRLMDTLKRSRGQLVLVADEFGAIEGLVTPIDVFEAIAGEFPDEDELPDIVAESE”, the protein production entry is “not failed”.

On to “SDLVITQELARAESQQDAASLKKAYELIKSANLGKSEFDPSESFSPDLFVLCAEQALKMRQPEVSEDCIQMYFKVKAPITQFLGRAHLCRAQMCAPKSAENLEEFENCVTEYMKAINFAKGEPRYYFLVYNASVLYWQMVRPFLKPGYRHHLIPSLSQIINVLSQTEEEDKEWRAELMLELLECYLQAGRKEEAARFCSTAAPFIKSHVPQKYRQIFSVMVNQRIRNRDVRSNFLKSHCSENCVEIT”, for which the protein production entry is listed as “not failed”.

Consider “SDSAFANLDAAGFLQIWQHFDADDNGYIEGKELDDFFRHMLKKLQPKDKITDERVQQIKKSFMSAYDATFDGRLQIEELANMILPQEENFLLIFRREAPLDNSVEFMKIWRKYDADSSGYISAAELKNFLKDLFLQHKKKIPPNKLDEYTDAMMKIFDKNKDGRLDLNDLARILALQENFLLQFKMDASSQVERKRDFEKIFAHYDVSRTGALEGPEVDGFVKDMMELVRPSISGGDLDKFRECLLTHCDMNKDGKIQKSELALCLGLKHKP”, for which the protein production entry is on record as “not failed”.

Turning to “SEAWEYFHLAPARAGHHPNQYATCRLCGRQVSRGPGVNVGTTALWKHLKSMHREELEKSGHGQ”, the protein production entry is recorded as “not failed”.

In the case of “SEKYNSLSDFLKEFYIPTYVLSAETEEEEEEESRPTPASPVLVFINSKSGGQLGGELILTYRSLLNHNQVFDLDQETPDKVLRRIYLNLERLKDDDFARQIREKLKIIVAGGDGTAGWLLGVVCDLKLSHPPPIATVPLGTGNNLPFAFGWGKKNPGTDRTAVESFLEQVLKAKVMKIDNWHILMRMKTPKEGGSCDPVAPLELPHSLHAFHRVSPTDELNKEGCHTFRGGFWNYFSLGMDAQISYAFHSERKLHPEKFKNQLVNQSTYVKLGCTQGWFCASLFHPASRNIAQLAKVKIATRNGQWQDLHIPHSIRSIVCLNLPSFSGGLNPWGTPNPRKQRDRGLTPPFVDDGLIEVVGFRNAWHGLVLLAPNGHGTRLAQANRIRFEFHKGATDHTFMRMDGEPWKQPLPLDDETVMVEISHLGQVNMLATHDCRSRSVFDPSTPRHQDGAEDYDDNEDDSVAEGEEFRKFGAADTFKIPDEVDISQLS”, the protein production entry is listed as “failed”.
